Data reported in the supplement of paper PMC5998384.

Tests used:
[1] = tested on: HeLa Kyoto; assay: solubility in G1/S (NP-40 vs SDS abundance) (log2 ratio); higher = more soluble; settings: cell cycle stage: G1/S
[2] = tested on: HeLa Kyoto; assay: melting temperature (median over replicates), in situ; higher = more thermally stable
[3] = tested on: HeLa Kyoto; assay: solubility change mitosis vs G1/S (difference of NP-40 vs SDS log2 ratios) (log2 ratio difference); higher = more soluble in mitosis
[4] = tested on: HeLa Kyoto; assay: thermal stability score vs G1/S (z-score of summed log2 fold changes over temperatures); higher = more thermally stable than in G1/S
[5] = cell cycle stage: early G1 (4.5 h after nocodazole release)
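Wherever melting temperature (median over replicates), in situ is given: HeLa Kyoto cells synchronized by double thymidine or nocodazole block, proteins quantified by TMT10plex mass spectrometry, three independent biological replicates.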
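Wherever solubility change mitosis vs G1/S (difference of NP-40 vs SDS log2 ratios) is given: synchronized HeLa Kyoto cells (double thymidine block for G1/S, nocodazole release for mitosis), protein amounts in NP-40 versus SDS lysates quantified by mass spectrometry, three biological replicates.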
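Wherever solubility in G1/S (NP-40 vs SDS abundance) is given: HeLa Kyoto cells arrested at G1/S by double thymidine block, proteins quantified by TMT10plex mass spectrometry in mild NP-40 versus SDS extracts, three biological replicates.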
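Wherever thermal stability score vs G1/S (z-score of summed log2 fold changes over temperatures) is given: synchronized HeLa Kyoto cells, proteins quantified by TMT10plex mass spectrometry, three biological replicates, mitosis taken 0.5 h after nocodazole release, G1/S directly after double thymidine block.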

Row | Sequence | solubility in G1/S (log2) [1] | melting temperature ([2]; cell cycle stage: G1/S) [°C] | melting temperature ([2]; cell cycle stage: mitosis) [°C] | solubility change mitosis (log2) [3] | thermal stability score [4, 5] | thermal stability score ([4]; cell cycle stage: mitosis)
1 | MWDQGGQPWQQWPLNQQQWMQSFQHQQDPSQIDWAALAQAWIAQREASGQQSMVEQPPGMMPNGQDMSTMESGPNNHGNFQGDSNFNRMWQPEWGMHQQPPHPPPDQPWMPPTPGPMDIVPPSEDSNSQDSGEFAPDNRHIFNQNNHNFGGPPDNFAVGPVNQFDYQHGAAFGPPQGGFHPPYWQPGPPGPPAPPQNRRERPSSFRDRQRSPIALPVKQEPPQIDAVKRRTLPAWIREGLEKMEREKQKKLEKERMEQQRSQLSKKEKKATEDAEGGDGPRLPQRSKFDSDEEEEDTENVEAASSGKVTRSPSPVPQEEHSDPEMTEEEKEYQMMLLTKMLLTEILLDVTDEEIYYVAKDAHRKATKAPAKQLAQSSALASLTGLGGLGGYGSGDSEDERSDRGSESSDTDDEELRHRIRQKQEAFWRKEKEQQLLHDKQMEEEKQQTERVTKEMNEFIHKEQNSLSLLEAREADGDVVNEKKRTPNETTSVLEPKKEHKEKEKQGRSRSGSSSSGSSSSNSRTSSTSSTVSSSSYSSSSGSSRTSSRSSSPKRKKRHSRSRSPTIKARRSRSRSYSRRIKIESNRARVKIRDRRRSNRNSIERERRRNRSPSRERRRSRSRSRDRRTNRASRSRSRDRRKIDDQRGNLSGNSHKHKGEAKEQERKKERSRSIDKDRKKKDKEREREQDKRKEKQKREEKDFKFSSQDDRLKRKRESERTFSRSGSISVKIIRHDSRQDSKKSTTKDSKKHSGSDSSGRSSSESPGSSKEKKAKKPKHSRSRSVEKSQRSGKKASRKHKSKSRSR [PNISR] | -0.83 | 59.9 | 54.5 | 0.456 | -6.44 | -8.27
2 | MWLAAAAPSLARRLLFLGPPPPPLLLLVFSRSSRRRLHSLGLAAMPEKRPFERLPADVSPINYSLCLKPDLLDFTFEGKLEAAAQVRQATNQIVMNCADIDIITASYAPEGDEEIHATGFNYQNEDEKVTLSFPSTLQTGTGTLKIDFVGELNDKMKGFYRSKYTTPSGEVRYAAVTQFEATDARRAFPCWDEPAIKATFDISLVVPKDRVALSNMNVIDRKPYPDDENLVEVKFARTPVMSTYLVAFVVGEYDFVETRSKDGVCVRVYTPVGKAEQGKFALEVAAKTLPFYKDYFNVPYPLPKIDLIAIADFAAGAMENWGLVTYRETALLIDPKNSCSSSRQWVALVVGHELAHQWFGNLVTMEWWTHLWLNEGFASWIEYLCVDHCFPEYDIWTQFVSADYTRAQELDALDNSHPIEVSVGHPSEVDEIFDAISYSKGASVIRMLHDYIGDKDFKKGMNMYLTKFQQKNAATEDLWESLENASGKPIAAVMNTWTKQMGFPLIYVEAEQVEDDRLLRLSQKKFCAGGSYVGEDCPQWMVPITISTSEDPNQAKLKILMDKPEMNVVLKNVKPDQWVKLNLGTVGFYRTQYSSAMLESLLPGIRDLSLPPVDRLGLQNDLFSLARAGIISTVEVLKVMEAFVNEPNYTVWSDLSCNLGILSTLLSHTDFYEEIQEFVKDVFSPIGERLGWDPKPGEGHLDALLRGLVLGKLGKAGHKATLEEARRRFKDHVEGKQILSADLRSPVYLTVLKHGDGTTLDIMLKLHKQADMQEEKNRIERVLGATLLPDLIQKVLTFALSEEVRPQDTVSVIGGVAGGSKHGRKAAWKFIKDNWEELYNRYQGGFLISRLIKLSVEGFAVDKMAGEVKAFFESHPAPSAERTIQQCCENILLNAAWLKRDAESIHQYLLQRKASPPTV [NPEPPS] | 0.0254 | 53.9 | 53.6 | -0.148 | -0.503 | -1.51
3 | MGGKNKKHKAPAAAVVRAAVSASRAKSAEAGIAGEAQSKKPVSRPATAAAAAAGSREPRVKQGPKIYSFNSTNDSSGPANLDKSILKVVINNKLEQRIIGVINEHKKQNNDKGMISGRLTAKKLQDLYMALQAFSFKTKDIEDAMTNTLLYGGDLHSALDWLCLNLSDDALPEGFSQEFEEQQPKSRPKFQSPQIQATISPPLQPKTKTYEEDPKSKPKKEEKNMEVNMKEWILRYAEQQNEEEKNENSKSLEEEEKFDPNERYLHLAAKLLDAKEQAATFKLEKNKQGQKEAQEKIRKFQREMETLEDHPVFNPAMKISHQQNERKKPPVATEGESALNFNLFEKSAAATEEEKDKKKEPHDVRNFDYTARSWTGKSPKQFLIDWVRKNLPKSPNPSFEKVPVGRYWKCRVRVIKSEDDVLVVCPTILTEDGMQAQHLGATLALYRLVKGQSVHQLLPPTYRDVWLEWSDAEKKREELNKMETNKPRDLFIAKLLNKLKQQQQQQQQHSENKRENSEDPEESWENLVSDEDFSALSLESANVEDLEPVRNLFRKLQSTPKYQKLLKERQQLPVFKHRDSIVETLKRHRVVVVAGETGSGKSTQVPHFLLEDLLLNEWEASKCNIVCTQPRRISAVSLANRVCDELGCENGPGGRNSLCGYQIRMESRACESTRLLYCTTGVLLRKLQEDGLLSNVSHVIVDEVHERSVQSDFLLIILKEILQKRSDLHLILMSATVDSEKFSTYFTHCPILRISGRSYPVEVFHLEDIIEETGFVLEKDSEYCQKFLEEEEEVTINVTSKAGGIKKYQEYIPVQTGAHADLNPFYQKYSSRTQHAILYMNPHKINLDLILELLAYLDKSPQFRNIEGAVLIFLPGLAHIQQLYDLLSNDRRFYSERYKVIALHSILSTQDQAAAFTLPPPGVRKIVLATNIAETGITIPDVVFVIDTGRTKENKYHESSQMSSLVETFVSKASALQRQGRAGRVRDGFCFRMYTRERFEGFMDYSVPEILRVPLEELCLHIMKCNLGSPEDFLSKALDPPQLQVISNAMNLLRKIGACELNEPKLTPLGQHLAALPVNVKIGKMLIFGAIFGCLDPVATLAAVMTEKSPFTTPIGRKDEADLAKSALAMADSDHLTIYNAYLGWKKARQEGGYRSEITYCRRNFLNRTSLLTLEDVKQELIKLVKAAGFSSSTTSTSWEGNRASQTLSFQEIALLKAVLVAGLYDNVGKIIYTKSVDVTEKLACIVETAQGKAQVHPSSVNRDLQTHGWLLYQEKIRYARVYLRETTLITPFPVLLFGGDIEVQHRERLLSIDGWIYFQAPVKIAVIFKQLRVLIDSVLRKKLENPKMSLENDKILQIITELIKTENN [DHX29] | -0.444 | 51.7 | 50.7 | 0.00585 | -0.474 | -0.738
4 | MFRRKLTALDYHNPAGFNCKDETEFRNFIVWLEDQKIRHYKIEDRGNLRNIHSSDWPKFFEKYLRDVNCPFKIQDRQEAIDWLLGLAVRLEYGDNAEKYKDLVPDNSKTADNATKNAEPLINLDVNNPDFKAGVMALANLLQIQRHDDYLVMLKAIRILVQERLTQDAVAKANQTKEGLPVALDKHILGFDTGDAVLNEAAQILRLLHIEELRELQTKINEAIVAVQAIIADPKTDHRLGKVGR [C14ORF166] | 0.0935 | 50.1 | 51.3 | 0.329 | -1.08 | -0.0878
